From the nanobody polyreactivity screen of Harvey et al. (2022)

Experiment: yeast display, Sf9 membrane polyspecificity reagent, FACS + sequencing; frameworks hold sequencing errors
In short: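 Nanobodies from a synthetic yeast display library (Saccharomyces cerevisiae BJ5465), induced 36–48 hours with galactose, were stained 1 hour at 4 °C with 10% biotinylated, detergent-solubilized Sf9 membrane reagent, enriched on streptavidin microbeads, then FACS-sorted. Anti-HA (expression) and streptavidin (reagent binding) fluorescence set low and high (top ~1%) gates. Polyreactivity labels come from the gate of origin. Genes were colony-PCR amplified, MiSeq 2 × 250 sequenced and filtered by CDR length.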

Sequence	polyreactivity (PSR sort gate)
QVQLVESGGGLVQAGGSLRLSCAASGSIFRTNAMGWYRQAPGKEREFVASISSDSGNTYYADSVKGRFTISRDNAKYTVYLQMNSLKPEDTAVYYCARRKVRYWSYRAANYYWGQGTQVTVSS	low polyreactivity
QVQLVESGGGLVQAGGSLRLSCAASGLTFGWNAMGWYRQAPGKERESVAAISYNGVSTHYADSVKGRFTISRDNAKNTVYLQMNSLKPEDTAVYYCAARALTWPYGGTAPRLYNYWGQGTQVTVSS	low polyreactivity
QVQLEESGGGLVQAGGSLRLSCAASGIIFYRSVMGWYRQAPGKERELVAAITGGGSTYYADSVKGRFTISRDNAKNTVYLQMNSLKPEDTAVYYCNADIRAYTVLTGGYIYDYWGQVTQVTVSS	high polyreactivity
QVQLVESGGGLVQAGGSLRLSCAASGRIFIPYAMGWYRQAPGKERELVAAISSSGGSTYYADSVKGRFTISRDTAKNTVYLQMNSLKPEDTAVYYCAARLYWGYAYETYSSLFEYDYWGQGTQVTVSS	low polyreactivity
QVQLVESGGCIVQAGVSLRLSCSSSGRTFGYNAMGLYRNAPGKERELVAAINWSGASKYYADSVKGRFTISRDNAKNTVYLQMNSLKPEDTAVYYCAADYSYIYGFDYWGQGTQVTVSS	low polyreactivity
QVQLVESGGGLVQAGGSLRLSCAASGSTFRWNAMGWYRQAPGKERELVAAITRSGGSTYYADSVKGRFTISRDNAKNTVYLQMNSLKPEDTAVYYCAAGYYTARRIRSDYWGQGTQVTVSS	high polyreactivity
QVQLVESGGGLVQAGGSLRLSCAASGSTFKIYAMGWYRQAPGKERELVARITGRGGSTYYADSVKGRFTISRDNAKNTVYLQMNSLKPEDTAVYYCAARTYYVPYYYWGQGTQVTVSS	high polyreactivity
QVQLVESGGGLVQAGGSLRLSCAASGRIFKSYAMGWYRQAPGIERELVAAIRSGGSTYYADSVKGRFTISRDNAKNTVYLQMNSLKPEYTAVYYCNRVTRTWKVTYHSWGQGTQVTVSS	high polyreactivity
QVQLVESGGGLVQAGGSLRLSCAASGSIFGGYAMGWYRQPPGKERELVAAITWGGGSTYYADSVKGRFTISRDNAKNTVYLQMNSLKPEDTAVYYCAADRSWYDWEDDYWGQGTQVTVSS	low polyreactivity
QVQLLESGGGLVQAGGSLRLSCAASGSIFNRYAMGWYRQAPGKERELVAAISSTGSTYYADSVKGRFTISRDNAKNTVYLQMNSLKPEDTAVYYCNAEATHDWLRVDTYEDWGQGTQVTVSS	low polyreactivity
QVQLVESGGGLVQAGGSLRLSCAASGFIFQGYVMGRYRQAPGKVREFVAAISRSGGTTFYADSVKGRFTISRDNAKNPVYLQMNSLKPEDTAVYYCNRAPLGRPGYDYWGPGTQVTVSS	high polyreactivity
QVQLVESGGGLVQAGGSLRLSCAASGLIFSYYVMGWYRQAHGKERELVAAISRRGGSTYYADSVKGRFTISRDNAKNTVYLQMNSLKPEDTAVYYCNAQRNFKSITEYDYWGQGTQVTVSS	high polyreactivity
QVQLVESGGGLVQAGGSLRLTCAASGRIFVKNAMGWYRQAPGKERELVATICSGGNTNYADSVKGRFTISRDNAKNTVYLQMNSLKPEDTAVYYCAAVWDLGDYELPYDYWGLGTQVTVSS	low polyreactivity
QVQLVESGGGLVQAGGSLRLSCAASGRTLYRYAMGWYRQAPGKERELVAAISSGGRTYYADSVKGRFTISRDNAKNTVYLQMNSLKPEDTAVYYCAAERGWWRNDFDYWGQGTQVTVSS	high polyreactivity
QVQLVESGGGLVQAVGSLRLSCAASGRTFSEYAMGWYRQAPGKERELVAAITGTGGSTYYADSVKGRFTISRDNAKNTVYLQMNSLKPEDTAVYFCAAEYYRYYFLSVSTDDYWGQGTQVTVSS	high polyreactivity
QVQLVESGGGLVQAGGSLRLSCAASGFTFGSNTMGWYRQAPRKERELVAAITGRGGSTYYADSVKGRFTSSRDNAKNTVYLQMTSLKPEDTAVYYCAARTYPTGASFDYWGQGTQVTVSS	high polyreactivity
QVQLVESGGGLVQAGGSLRLSCAASGRIFAANAMGWYRQAPGKERELVATISTGGGRTYYADSVKGRFTISRDNAKNTVYLQMNSLKPEDTAVYYCAASRGYLVPTRLAYYYWGQGTQVTVSS	high polyreactivity
QVQLVESGGGLVQAGGILRLICAASGITFVSYGMVWYRQAPRKERELVAAITRSGGSTYYADSVKGRFTISRDNAKNTVYLQMNSLKPDDTAVYYCNARTRYASKGGGARWDSYGYWGQGTQVTVSS	high polyreactivity
QVQLVESGGGLVQAGGSLRLSCAASGFTFVYYVMGWYRQAPGKEREKVAAINAGGGSTYYADSVKGRFTISRDNAKNTVYLQMHSLKPEDSAVYYCATRPRYYYFRYDYWGQGTQVTVSS	high polyreactivity
QVQLVDSGGRLLQAGGSLRLSCAASGRTFYYYAKGWYRQAPGKERELVASITSDGDTNYADSVKGRFTISGDNAKNTGYLQMNSLKPEDTAVYYCAAEWQTQGYEYWGQGTQVTVSS	high polyreactivity
QVQLVESGGGLVQAGGSLRLSCAASGLTFYGYGMGWYRQAPGKERELVASITSGGNTYYADSVKGRFTISRDNAKNTVYLQMNSLKPEDTAVYYCAVTAIALYYSSGYYWGQGTQVTVSS	low polyreactivity
QVQLVESGGGLVQAGGSLRLSCAASGRTFRKYAMGWYRQAPGKERELVAAISWSGGSTYYANSVKGRFTISRDNAKNTVYLQMNSLKPEDTAVYYCAAVPVHTGSLYWGFTTGYDYWGQGTKVTVSS	low polyreactivity
QLQIVESGGGLVQAGGSLRLISAASGSTLAYYAMGWYRQEPGKERELVAAINWRTYYADSVKGRFTISRDNAMNTLYLQMNSLKPEDTAVYYCAAGYYLNKFYYWGQGTQVTVSS	high polyreactivity
QVQLVESGGGLVQAGGSLRLSCAASGRTFSAYTMGWYRQAPGKERELVAAISRRGGSTYYADSVKGRFTISRDNAKNTVYLQMNSLKPEDTAVYYCATKSQYDYDYWGHGTQVTVSS	high polyreactivity
QVQLVESGGGLVQAGGSLRLSCAASGRTFGKNAMGWYRQAPGKERELVAAIRYRTGSTYYADSVKGRFTISRDNAKNTVYLQMNSLKPEDTAVYYCAKVGSSPLYWGQGTQVTVSS	high polyreactivity
QVQLEESVGGLVQAGGSLRLSCAASGRTFGRYAMGWYRQAPGKERELVAGISRSGDSTHYADSVKGRFTISRDNAKKTVYLQMNSLKPEDTAVYYCNKETPTIGARKYEDWGQGTQVTVSS	low polyreactivity
QVQLVESGGGLVQAGGSLRLSCAASGSILLPYAMGRYRHAPGKERELVAAITYRGASTHYAASVKGRFTISRDNAKNTVYLQMNSLKQEDPAVYYCAARGWVYYASEMDYWGQGTQGTVSS	low polyreactivity
QVQLVESGGGLVQAGGSIRLSCAASGNTFRWYAMGWYRQAPGKEREFVAAISSSGGSTYYADSVKGRFTISRDNAKNTVYLQMNSLKPEDTAVYYCNAASVTRHVSFATDYEYWGQGTQVTVSS	high polyreactivity
QVQLVESGGGLVQAGGSLRLSCAASGFISPPYAMGWYRQAPGKERELVAAIRSSGGSTYYADSVKGRFTISRDNAKNTVYLQMNSLKPEDTAVYYCNADWIYISSYGWYSYDYWGQGTQVTLSS	high polyreactivity
QVQLVESGGGLVQAGGSLRLICAASGSTFLKYAMGWYRQAPGKERELVAAITYRGGTTYYADSVKGRFTISRDNAKNTVYLQMNSLKPEDTAVYYCAARGYKRMGYWGQGTQVTVSS	high polyreactivity
